Data on 3 molecules can be found in patent US20250277025A1.

B1: YL-G2-B (antibody, human IgG1, kappa)
heavy: EVQLQQSGPELEKPGASVKISCKASGYSFTGYKMNWVKQSNGKSLEWIGNIDPYYGGTTYNQKFKGKATLTVDKSSSTAYMQLKSLTSEDSAVYYCARYGKGNTMDYWGQGTSVTVSSASTKGPSVFPLAPSSKSTSGGTAALGCLVKDYFPEPVTVSWNSGALTSGVHTFPAVLQSSGLYSLSSVVTVPSSSLGTQTYICNVNHKPSNTKVDKRVEPKSCDKTHTCPPCPAPELVGGPSVFLLPPKPKDTLMISRTPEVTCVVVDVSHEDPEVKFNWYVDGVEVHNAKTKPPEEQYNSTLRVVSVLTVLHQDWLNGKEYKCKVSNKALPAPIEKTISKAKGQPREPQVYTLPPSREEMTKNQVSLTCLVKGFYPSDIAVEWESNGQPENNYKTTPLVLDSDGSFFLYSKLTVDKSRWQQGNVFSCSVMHEALHNHYTQKSLSLSPGK
light: DIVMTQSPSSLTVTAGEKVTMSCKSSQSLLNSGNQKNYLTWYQQRPGQPPKLLIYWASTRESGVPVRFTGSGSGTDFTLTISSVQAEDLAVYYCQNAYIYPLTFGTGTKLELKRTVAAPSVFIFPPSDEQLKSGTASVVCLLNNFYPREAKVQWKVDNALQSGNSQESVTEQDSKDSTYSLSSTLTLSKADYEKHKVYACEVTHQGLSSPVTKSFNRGEC
B2: YL-G2-D (antibody, human IgG1, kappa)
heavy: QLQQSGPELEKPGASVKISCKASGYSFTGYKMNWVKQSNGESLEWIGNIDPYYGDTTYTQKFKGKATFTVDTSSSTAYMQLKSLTSEDSAVYFCARYNRGNTMDYWGQGTSVTVSSASTKGPSVFPLAPSSKSTSGGTAALGCLVKDYFPEPVTVSWNSGALTSGVHTFPAVLQSSGLYSLSSVVTVPSSSLGTQTYICNVNHKPSNTKVDKRVEPKSCDKTHTCPPCPAPELVGGPSVFLLPPKPKDTLMISRTPEVTCVVVDVSHEDPEVKFNWYVDGVEVHNAKTKPPEEQYNSTLRVVSVLTVLHQDWLNGKEYKCKVSNKALPAPIEKTISKAKGQPREPQVYTLPPSREEMTKNQVSLTCLVKGFYPSDIAVEWESNGQPENNYKTTPLVLDSDGSFFLYSKLTVDKSRWQQGNVFSCSVMHEALHNHYTQKSLSLSPGK
light: DIVMTQSPSSLTVTAGEKVTLSCKSSQSLLNSGNQKNYLTWYQQRPGQPPKLLIYWASTRESGVPVRFTGSGSGADFTLTISSVQAEDLAVYFCQNAYFYPLTFGTGTKLELRRTVAAPSVFIFPPSDEQLKSGTASVVCLLNNFYPREAKVQWKVDNALQSGNSQESVTEQDSKDSTYSLSSTLTLSKADYEKHKVYACEVTHQGLSSPVTKSFNRGEC
B3: YL-G2-C (antibody, human IgG1, kappa)
heavy: QIQLVQSGPELRKPGETVKISCKASGFPFTTDGMSWVKQAPGKGLKWMGWINTYSGVPTYADDFKGRVAFSLETSASTAYLQIKNLKNEDTATYFCARFRRGNALDNWGQGTSVTVSSASTKGPSVFPLAPSSKSTSGGTAALGCLVKDYFPEPVTVSWNSGALTSGVHTFPAVLQSSGLYSLSSVVTVPSSSLGTQTYICNVNHKPSNTKVDKRVEPKSCDKTHTCPPCPAPELVGGPSVFLLPPKPKDTLMISRTPEVTCVVVDVSHEDPEVKFNWYVDGVEVHNAKTKPPEEQYNSTLRVVSVLTVLHQDWLNGKEYKCKVSNKALPAPIEKTISKAKGQPREPQVYTLPPSREEMTKNQVSLTCLVKGFYPSDIAVEWESNGQPENNYKTTPLVLDSDGSFFLYSKLTVDKSRWQQGNVFSCSVMHEALHNHYTQKSLSLSPGK
light: DIVMTQSPSSLTVTAGEKVTMSCKSSQSLLNSGNQKNYLTWYQQKPGQPPKLLIYWASTRESGVPDRFTGSGSGTDFTLTISSVQAEDLAIYYCQNNYFYPLTFGAGTRLELKRTVAAPSVFIFPPSDEQLKSGTASVVCLLNNFYPREAKVQWKVDNALQSGNSQESVTEQDSKDSTYSLSSTLTLSKADYEKHKVYACEVTHQGLSSPVTKSFNRGEC

For the assay, the target named is recombinant huCLDN18.2-Fc (Sino Biological, P/N: 20047-H02H) (human). The assay can be described thus: KinExA 4000 equilibrium, antibody constant, recombinant huCLDN18.2-Fc titrated.
In the case of B1, the Kd was 1.7 nM.

B2: the Kd turned out to be 6.4 nM. With B3, the Kd is 3.8 nM.
